Data taken from patent publication US7041458B2, “Methods and reagents for determining protein S” (priority 1996, dated 2006).
Blank lines part the entries; values can stand above or below the sequence they belong to. Bridges are numbered along the chain shown (N, C = ends). Where no end group is shown, it is not given here.

Assays:
[1] = target: T1, protein S-C4BP interaction (Homo sapiens, UniProt P20851); experiment: Peptide inhibition of the protein S-C4BP interaction by surface plasmon resonance (BIAcore, immobilized C4BP); type: binding; conditions: for effect on binding of human protein S to C4BP (SPR response): 50 nM protein S, peptide up to 100 μM (2000-fold excess); for IC50: 50 nM human protein S, immobilized C4BP, read-out: half maximum inhibition, peptide concentration; for inhibition of the protein S-C4BP interaction (summary of the above tests): up to 2000-fold excess over protein S
T1 construct: C4BPβ was first isolated from human plasma in the form of the protein S-C4BP complex; from tissue; host or cells: human plasma
T1 sequence (P20851 18-252): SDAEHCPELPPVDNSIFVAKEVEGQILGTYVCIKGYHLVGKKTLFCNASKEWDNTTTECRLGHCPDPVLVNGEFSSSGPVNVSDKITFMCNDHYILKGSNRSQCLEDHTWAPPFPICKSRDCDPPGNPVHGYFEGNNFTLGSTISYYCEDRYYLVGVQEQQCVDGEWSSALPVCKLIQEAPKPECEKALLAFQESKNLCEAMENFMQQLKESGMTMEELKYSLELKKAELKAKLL
T1 sequence (P04003 49-597 partner): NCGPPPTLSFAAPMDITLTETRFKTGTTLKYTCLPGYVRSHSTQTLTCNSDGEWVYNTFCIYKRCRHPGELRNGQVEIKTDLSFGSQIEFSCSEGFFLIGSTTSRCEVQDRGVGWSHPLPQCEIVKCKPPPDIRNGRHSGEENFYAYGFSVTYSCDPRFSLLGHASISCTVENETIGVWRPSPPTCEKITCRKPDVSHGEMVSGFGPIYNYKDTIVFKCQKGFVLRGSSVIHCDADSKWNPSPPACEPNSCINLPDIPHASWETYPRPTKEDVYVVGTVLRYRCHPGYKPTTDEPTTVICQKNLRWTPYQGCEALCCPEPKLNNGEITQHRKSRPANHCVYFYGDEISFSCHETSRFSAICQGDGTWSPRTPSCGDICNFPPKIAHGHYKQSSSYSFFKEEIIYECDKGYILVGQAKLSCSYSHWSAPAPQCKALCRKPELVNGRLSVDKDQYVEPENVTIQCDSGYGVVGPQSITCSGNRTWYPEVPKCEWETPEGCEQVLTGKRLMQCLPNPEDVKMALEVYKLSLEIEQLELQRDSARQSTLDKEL
Description: E. Peptide Inhibition of the Protein S-C4BP Interaction According to Surface Plasmon Resonance Studies.
The surface plasmon resonance studies were performed using a BIAcore™ apparatus from Pharmacia Biosensor AB. Immobilization of C4BP to the dextran coated gold surface of a sensorchip was performed at a flow rate of 5 μl/min, using HC as flow buffer. Equal volumes of 0.1 M NHS and 0.1 M EDC were first mixed, whereafter 30 μl of the mixture was flown over the sensorchip surface to activate the carboxymethylated dextran. C4BP was then injected over the sensorchip (40 μl of a 60 μg/ml solution in 10 mM NaOAc at pH 4.75), whereafter unreacted NHS-ester groups were blocked by 15 μl 1M ethanolamine (pH 8.5). The system was regenerated by addition of 15 μl 0.1 M HCl, which removes all non-covalently bound molecules. The immobilized amount of C4BP was 8000 RU. Protein S association was monitored with 50 nM human protein S in HC buffer in a continuous flow of 1 μl per minute during 45 minutes. The ability of each peptide to inhibit the protein S binding was studied by following the association to C4BP for mixtures of protein S and peptide. In BIAcore™, the total amount of bound material is measured, and the peptides are 25-fold smaller than protein S, inhibition of protein S-binding by peptide binding will drastically lower the observed response during the association phase. The percent protein S bound, X, was calculated as X=(S−0.04Smax)/0.96Smax where S is the measured response and Smax is the response obtained in the absence of peptide.
As disclosed in Section E, the ability of the synthetic peptides to inhibit the binding of human protein S to C4BP was also studied using surface plasmon resonance on a BIA-core™ system.
(§1) In these figures, peptide inhibition of the protein S-C4BP interaction is shown as the amount of protein S bound (relative to the amount bound in the absence of peptide) versus concentration of the nine peptides listed in Table 1: (o) SL1, (♦) SL2, (□) SL3, (+) SL4, (⋄) SL5, (●) SL6, (▾) SL7, (Δ) BD4 & (∇) BD6. In FIG. 5A, the result from an equilibrium binding assay using immobilized C4BP in microtiter wells and radiolabelled human protein S is shown. […] In FIG. 5B, the result from surface plasmon resonance assay on a BIAcore™ sensorchip is shown. The amount of protein S bound, X, was calculated from the observed signal intensity, S, compared to the maximum signal intensity in the absence of peptide Smax, as […].

[2] = target: T1, protein S-C4BP interaction; experiment: Peptide inhibition of the protein S-C4BP interaction in microtiter plates (equilibrium binding assay, 125I-labelled protein S tracer, immobilized C4BP); conditions: displacement of 125I-labelled protein S from immobilized C4BP, EDTA buffer; read-out: half-maximum inhibition
Description: D. Peptide Inhibition of the Protein S-C4BP Interaction in Microtiter Plates.
Microtiter plates were coated with C4BP, 50 μl/well, 10 μg/ml in 0.075 M sodium carbonate buffer, pH 9.6. The plates were incubated over night at 4° C. and then washed with TBS, pH 7.5, containing 0.1% Tween 20. […] The wells were then washed and the amount of bound protein S detected using a γ-counter.
As disclosed in Section D, the synthetic peptides were tested for their ability to displace binding of a ^125I-labelled protein S tracer to immobilized C4BP (FIG. 5A).
as §1

[3] = target: T2, C4BP (Homo sapiens, UniProt P20851); experiment: Fluorescence polarization titration of peptides with C4BP (results not shown); type: binding; conditions: read-out: dissociation constant KD of the peptide-C4BP complex
T2 sequence (P20851 18-252): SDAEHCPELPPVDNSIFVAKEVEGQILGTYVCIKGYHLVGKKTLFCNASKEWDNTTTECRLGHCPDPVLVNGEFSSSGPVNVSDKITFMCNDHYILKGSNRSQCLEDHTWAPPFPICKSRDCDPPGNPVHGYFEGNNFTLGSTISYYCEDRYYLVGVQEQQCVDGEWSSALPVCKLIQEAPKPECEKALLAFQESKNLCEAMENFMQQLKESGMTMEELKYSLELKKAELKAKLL
T2 sequence (P04003 49-597 partner): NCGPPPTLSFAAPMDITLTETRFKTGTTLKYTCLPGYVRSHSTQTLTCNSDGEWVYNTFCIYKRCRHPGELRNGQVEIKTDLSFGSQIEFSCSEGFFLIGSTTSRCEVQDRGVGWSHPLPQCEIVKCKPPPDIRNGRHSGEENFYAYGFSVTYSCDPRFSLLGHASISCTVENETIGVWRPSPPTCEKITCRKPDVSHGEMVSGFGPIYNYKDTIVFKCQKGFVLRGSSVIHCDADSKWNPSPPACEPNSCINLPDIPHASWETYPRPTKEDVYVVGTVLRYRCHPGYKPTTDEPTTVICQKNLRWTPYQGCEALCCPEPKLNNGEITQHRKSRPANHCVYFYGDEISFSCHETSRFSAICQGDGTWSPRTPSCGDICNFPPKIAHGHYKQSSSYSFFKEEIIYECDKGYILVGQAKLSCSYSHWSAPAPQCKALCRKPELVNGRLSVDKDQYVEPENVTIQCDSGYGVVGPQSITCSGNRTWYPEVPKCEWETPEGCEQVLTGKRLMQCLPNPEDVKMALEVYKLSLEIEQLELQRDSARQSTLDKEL
Description: The difference in KD observed for the peptide and protein might in part be due to post translational modification of the protein.

Sequence: DKAMKAKVATYLGGLPDVPFSAT [SL4]
effect on binding of human protein S to C4BP (SPR response) [1]: the same response was observed as with protein S alone

IC50 [2]: 100 to 200 µM
IC50 [1]: 30 to 120 µM
Kd [3]: ≤ 1 µM
Sequence: EKGSYYPGSGIAQFHIDYNNVS [SL2]

Sequence: KPENGLLETKVYFAGFPRK [SL1]
effect on binding of human protein S to C4BP (SPR response) [1]: the same response was observed as with protein S alone

inhibition of the protein S-C4BP interaction (summary of the above tests) [1]: gave no inhibitory effect
inhibition of the protein S-C4BP interaction (summary of the above tests) ([1]; listed as 405–437): did not show any inhibitory effect
Sequence: LDGCIRSWNLMKQGASGIKEIIQEKQNKHCLVT (disulfide 4-30 (inferred)) [BD4, reference compound]
effect on binding of human protein S to C4BP (SPR response) [1]: the same response was observed as with protein S alone

Sequence: LVTVEKGSYYPGSGIAQ [SL5]
effect on binding of human protein S to C4BP (SPR response) [1]: the same response was observed as with protein S alone

IC50 [2]: 100 to 200 µM
IC50 [1]: 30 to 120 µM
Kd [3]: ≤ 1 µM
Sequence: LVTVEKGSYYPGSGIAQFHIDYNNVSSAEGWHVN [SL7]

Sequence: SDQQSHLEFRVNNLEKSTPLK [SL3]
effect on binding of human protein S to C4BP (SPR response) [1]: the same response was observed as with protein S alone
